The series deals with the molecule itself. As to the kind of experiment: DEER.

The text below walks through data of publication doi:10.1101/2022.08.03.502720 (bioRxiv, 2022).

B1: CueR_19F58_L60H_G64H mutant (natural protein, E. coli)
chain: MNISDVAKITGLTSKAIRFYEEKGLVTPPMRSENGYRTYTQQHLNELTLLRQARQVGFNHEESHELVNLFNDPQRHSADVKRRTLEKVAEIERHIEELQSMRDQLLALANACPGDDSADCPIIENLSGCCHHRAG
modifications: 19F-phenylalanine at F58; Cu(II)-NTA spin label bound at the dHis site (L60H, G64H)
In the case of B1, the binding result is “binds”.
